Data: a protein production outcome set (Wang et al. 2014)

Experiment: label from the status in PepcDB records

Sequence: MDHQLSQHDIFISQDGQLQLTVAVDTETVWLTQAEICVLFDRERSVITKHINNVFKEGELERDSVCAIFARTADDGKTYQTQYFNLDVIISVGYRVKSKRGVQFRQWATNTLKQHLLQGYTLNQQRLVQRGIEFNQALALLSKTLTNQALINPDGQAVVNVIAEYARSWSLLQGYDEQSLTEITHKQQQMQPLALDEVLAAIAALKTNLIAKGEATDLFAQLRGNGLASSIATIEQGFGGEWFYPNVASRAAHLLYFIIKNHPFADGNKRTGSFLFLWYLQQNQHLLAKPVSEQINDTTLVALALLVAESLPDQKELMIRLIEHFILLKDSELEHHHHHH
- protein production: not failed

Sequence: MIKSFRHKGLKKFFESGSTAGIQPAHKNRLARQLHQLNVASCPDDMNLPGWGLHLLQGKNPKKQDVDGHYSISVNGNWRLTFYFDHGDAVLVDYQDYH
- protein production: failed

Sequence: RPAIRKRLLKPKVLDSSPRALVGHRAEVLEDVGATSGQVRLDGSIWSARSMDPTHTFAEGEIVSVIDIQGTTAIVWKEA
- protein production: not failed

Sequence: MSNLPLISVVIPTYGREEILRDSIVDVLNQDYPKYEVLVVDQSPKHKPEIETYLEEVAAAGKVKWFRLDWASLPGARNYAIRRASGEIILFIDDDVKLKPGFLAAHAKNYVQNPDVGSVAGRVFDRMKLGDSGGNLEIEYLPPEAMDPGVAWYHIDLVHTIKPQQVLTARGCNMSFRREIFTKHGLRFDERFRGSAVREESDFCLRLRQTGYKIWYDPEADLIHLGEETGGCHDISMRSLKYQFTFYHNHFLLGLKNLNFSQALRLYARLFDCHVLGRPPCHKSGSPIKIITRGIFYILGFFRALGSVIQSNWHDGQIYSRLDQESIIKSQESMVNS
- protein production: failed

Sequence: MTPFTQSQRIKALFWLSLFHLLVIISSNYLVQLPITIFGFHTTWGAFSFPFIFLATDLTVRIFGAPLARRIIFAVMIPALLVSYVVSSLFYMGAWQGFAALANFNLFVARIAAASFMAYALGQILDVHVFNRLRQNRRWWLAPTASTLFGNISDTLAFFFIAFWRSPDAFMAGHWMEIALVDYCFKVLISIIFFLPMYGVLLNMLLKKLADKSEISPLPAS
- protein production: not failed

Sequence: MDSLRFNLQQSPFQLKPRILRPRITNISNRIDETDPRPSSSAGRIQRLVLNNEGRTKLNADPDREFYSYPRFVNHVDDSFISSLTELYRNRLRPGSTVLDLMSSWVSHLPEEVKYEKVVGHGLNAQELARNPRLDYFFVKDLNEDQKFEFEDKYFDAVLCSVGVQYLQQPEKVFAEVYRVLKPGGVLIVSFSNRMFYEKAIRVWRDGTEYSRIQLVVQYFQSIEGFTQPEIIRQQPGAQISVLTRLMGFIGLASTPDPFNAVIAYKNFKPIYE
- protein production: failed

Sequence: ASNTNLIVNYLPQDMTDRELYALFRAIGPINTCRIMRDYKTGYSYGYAFVDFTSEMDSQRAIKVLNGITVRNKRLKVSYARPGGESIKDTNLYVTNLPRTITDDQLDTIFGKYGSIVQKNILRDKLTGRPRGVAFVRYNKREEAQEAISALNNVIPEGGSQPLSVRLA
- protein production: not failed

Sequence: MGWHFQQSVTMPSEWRTLALESDDSYNDFTVIMRRKLQENQVNVVNLEQNIPILRINKQITSDQVASIFKHGREAEKLLMLEVEATFRLANGESYPINAKVNRTFFDNARAALAKSEEREVIWNDMREQVARQLIVKIIALQNQIKRKLEHHHHHH
- protein production: not failed

Sequence: MKTYTSVIFWMRTIACLSIVLIHSITTTFSKMDFLGHGTAIRVFQLMLMFSTPLFVFISEFLLAKNYQVKTKPGFFKNKLIYLGIPYIIINIGIALFYFESKTFDQFMTHLGDTMFHGGAVTYFIVIIFQFYILHILFAKYLIKWKPVPVIIGAVIFATIYWAFRQYAPQSEHPILGLFWEREGWMLFLGWISYFLLGFYTGIYYETFMKKIKKYTWPIIIGAIIATSILVDNYLFGISTWVESKRFDIPFYVKMVILVFFLFASYVKYVPKFILFISNYSFCIYLIHYFFVHELGLLRAASSLRNIAFNFIITLTVSICLAYIFNLSKYGKFIVGGIGHIKYDKVYESYKHGKMD
- protein production: failed

Sequence: MNLAVTVLEIVAPVFLLAAVGFGWVRMGFEYRLQFVTRLGTMLAVPCLIFVALMKTEIPGGDLSRFTLASALAILALTVVFGLIVRFSGLDRRTYLPPLLFGNTGNLGLPLCMFAFGIEGLSYAVVFFSLSALWSFSYGIHVVAGQGSLSKVVREPMVWATLLGALFLSQDWQTPRFLTNALELIGQMAVPLMLITLGVAMARLSIRRIGQALGLSLLKLAICFPVGWLVAQGFGLSGPALGVLVVQMSVPAAVSAYLLAERFGADADAVAGMVMVSTLLAVGALPLVLAAVL
- protein production: failed

Sequence: MSSVCFSVSREKLSGDIMLEKLNHYRQNLNFPLARPKNSSTQFRFDWVDNLRELQEVQRFRATQFSHQFGIHFDDGLDQDLYDFNCEHAVLREKWTGEIVAYTRLKLFQGHELSQSYSAQEFDIVDKLSYLPNVVEIGRTCVHPKFRSGKALSTLWLNLVPKVLWSMKAKYLMGCVSIHLDDNAARVYHTHQKIQRLSAEQTIDISSKCAYEPTHPQFSFPQDERIPKLFQMYLTMQSKLSKEAFYDEDFNCLDYFVFLEVNKIAKSFVMNKMVQR
- protein production: failed

Sequence: MWQQHLAILPILVPLLAALLQLLPWGDRPQPKRRAIGLLSSILTLILTIALLVQVNQDQMIVYALGNWSAPFGIVLMVDKLSALMMLVTAILALPVLIYGCYAEDNLGSHFQALFQFQIMGIMGAFATGDIFNLFVFFEVLLISSYALLMHGGGKFRLRTTLHYVLLNLLGSALFLISVGTLYGVTGTLNMADLATQVQQLSGDQAALAKAGGMMLLIVFGIKAAILPLHFWLPQAYSTTTGVVAALFAIMTKVGVYAIVRVYTLIFGPEANELALIAHDWLWVMGLVTMLAGAIGIIGARDLRLLVAYLVVISIGTLIATYSLNGIATTGAMLFYLIHSTFITGALFLLADLIAFERGKTASRIVSGKKMANHSAYSVMFLIAAIAIIGLPPLSGFVGKLMIMESASPTGASFWLWGAMLGATLIMLISVTRAGSKMLWHTLSGKANEQSAPLGKRAAVVMLLSLSVVMTLFASPIRNYTDDVAEQLYDIDQYPSRVLTKGAE
- protein production: failed

Sequence: MIILDNLEQFKVVYRDGRKWNRCVEAIENIGNLRDGIMYSIGDSLVYMIEDGIAKNTETFVGNRRYFDIHYYLEGRETVEVASKSELESVQAYSDETDREHLNGNGQKHQLCEGQVAVFDNTKAYKFHGDNRVRKVVLKVTIEDGYFLNK
- protein production: failed

Sequence: MRFLAYFGHLNIDVLISVDSIPREGSVNVKDLRPRFGGTAGNFAIVAQKFRIPFDLYSAVGMKTHREYLAMIESMGINTGHVEKFEDESGPICYIATDGKKQVSFMHQGAMAAWAPQLADEYEYVHFSTGPNYLDMAKSIRSKIIFDPSQEIHKYSKDELKKFHEISYMSIFNDHEYRVFREMTGLSSPKVTTIVTNGERGSSLFMDGKKYDFPAIPSSGDTVGAGDSFRAGLYLALYNRRSIEKGMIYGTIIAHHVIDDGIENFSLNMEDLERETENYRRMFTKRS
- protein production: not failed

Sequence: MTISRNYDQEIKDTAGHKYAYNFDFDVMHPFMVRAFTPFFRPGNLLELGSFKGDFTSRLQEHFNDITCVEASEEAISHAQGRLKDGITYIHSRFEDAQLPRRYDNIVLTHVLEHIDDPVALLKRINDDWLAEGGRLFLVCPNANAVSRQIAVKMGIISHNSAVTEAEFAHGHRCTYALDTLERDASRAGLQVTYRSGIFFKALANFQWDQILQTDILSKEYLDGCYQLGQQYPDLCASIFLLCEKGINQ
- protein production: not failed

Sequence: MEHGTESFWTDIKRYEDILAKDPGSYCFAPLSELYRKVGLLDDAIMTARTGIGQHPEYVGGYMALGRACFEKGERTESRAALEKVVRVTPDNLLAQKLLSQIYVDAGESDLARRCLEIILSLSPGDLESKLMLDAMCRQPRENADRADDLFNEMGAAAAIDLEDESLLEEIEIIEELVDEVVDEEDLAAFTAHAPPPPLAEESFADVLLDEEPVANADVPSPRDVLSTGTVADLYIAQGFPKKALAIYRDLLDADPLNEDIRNRMVDLKKRIDEDEARARESVLAEAVSATDTTAQIQGDLTADREAFKEEAASGFAVESAHEVDIPLEVAVSAESSLNVAEEKEASAAHVVSALEGWLDSIRRIRQCRSVLH
- protein production: failed

Sequence: MHIPDGIIPLWQCAVYWAVALINIGIFFYIFSKKPQKERRIVGTGLFAAAAAAVSSISVPSPFGVPVHFFLIPLAAILLGPLTAVIVATLCLVIQFFILGMGGLTSMGANILTMGIGLGVGTYAVYSVVSELDRSLAVFTATFFGIMVATVFHIMILLAAGVAGPEMLMATLIPFYIFVGVIEGAANIFIVSFLERMKPELTMMERV
- protein production: failed
